Target: T1, GFP with a C-terminal BC2 tag (BC2 tag (beta-catenin 16-27) on GFP, chimera)
T1 construct: GFP ('modified GFP that contains BC2T as a C-terminal peptide tag'; its control is called wtGFP); variant and limits are in the Supplementary methods; BC2 tag (BC2T), residues 16-27 of beta-catenin, at the C-terminus; also called GFP_(BC2T); source: E. coli, soluble protein fraction of the lysate (pull-downs); protein expression and purification are told in the Supplementary methods
T1 chain: PDRKAAVSHWQQ
Experiment: SPR; measurements 'using the GFP_(BC2T) construct'; who was immobilised and the conditions are not told in the text shown (Supplementary methods, Supplementary Fig. 3)
Details: both partners purified

Kd: 1.4 ± 0.06 nM
koff: 0.00064 s⁻¹
kon: 460000 M⁻¹ s⁻¹
B1: BC2 nanobody (VHH)
VHH: QVQLVESGGGLVQPGGSLTLSCTASGFTLDHYDIGWFRQAPGKEREGVSCINNSDDDTYYADSVKGRFTIFMNNAKDTVYLQMNSLKPEDTAIYYCAEARGCKRGRYEYDFWGQGTQVTVSS
notes: In the pull-downs it is covalently coupled to Sepharose beads (BC2 nanotrap); also called BC2-Nb; wt; source: purified; expression and purification are told in the Supplementary methods
